Measurements: the nanobody polyreactivity screen of Harvey et al. (2022)

experiment: yeast display, Sf9 membrane polyspecificity reagent, FACS + sequencing; frameworks hold sequencing errors
Method in brief: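 Using colony PCR, genes from sorted yeast display clones were amplified, then sequenced on MiSeq at 2 × 250 and filtered by CDR length. The clones had been stained with 10% biotinylated, detergent-solubilized Sf9 membrane reagent for 1 hour at 4 °C and sorted by FACS into low and high (top ~1%) gates on anti-HA and streptavidin fluorescence. Polyreactivity labels come from the gate of origin.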

| Sequence | polyreactivity (PSR sort gate) |
| --- | --- |
| QVQLVESGGGLVQARGSLRLSCAASGFTFDQYTMGWYRQAPGKERELVAAISSSGGSTYYADSVKGRFTISRDNAKKTVYLQMNSLKPEDTAVYYCAARFLLTQRFSHDYWGQGTQVTVSS | low polyreactivity |
| QVQLVESGGGLVQARGSLRLSCAASGGNISYNAMGRYRQAPGKEREFVASISSSGGRTYYADSVKGRFTISRDNAKNTVYLQMNSLKPEDTAVFYCNADAQVEYGLFGQGWVTSFDYWGEGTQVTVSS | low polyreactivity |
| QVQLVESGGGLVQARGSLRLSCAASGIIFSTYAMGWYRQAPGKERELVAAISASGVRTYYADSVKGRFTISRDNAKNTVYLQMNSLKPEDTAVYYCAVRGYPYLRYYWGQGTQVTVSS | high polyreactivity |
| QVQLVESGGGLVQARGSLRLSCAASGIIFYSYAMGWYRQAPGKEREFVAAITNSDGSTYYADSVKGRFTISRDNAKNTVYLQMNSLKPEDTAVYMYYWGQGTQVTVSS | low polyreactivity |
| QVQLVESGGGLVQARGSLRLSCAASGLIFYGNAMGWYRQAPGKERELVAAISRRGGRTYYADSVKGRFTISRDNAKNTVYLQMNSLKPEDTAVYYCAKRYKSIPRYWSKEYDYWGQGTQVTVSS | high polyreactivity |
| QVQLVESGGGLVQARGSLRLSCAASGNIFYRYAMGWYRQATGKERELVAAISFSGGGTYYADSVKGRFTISRDNAKNTVYLQMNSLKPEDTAVYYCAAYRRGCYDYWGQGTQVTVSS | high polyreactivity |
| QVQLVESGGGLVQARGSLRLSCAASGRIFFRNAKGWYRQAPGKERELVAAITYSGGSTYYADSVKGRFTISRDNAKNTVYLQMNSLKPEDTAVYYCGAGYWFSYSRVTRYDYWGQGTQVTVSS | high polyreactivity |
| QVQLVESGGGLVQARGSLRLSCAASGRSFVINAMGWYRPAPGKERELVAGITSSGNTNYADSVKGRFTISRDNAKNTVYLQMNSLKPEDTAVYDCNAQVYLTWLTYWLYYPPNDYWGQGTQVTVSS | low polyreactivity |
| QVQLVESGGGLVQARGSLRLSCAASGRTFAIYAMGWYRPAPGKEREFVAAISWSGGDTYYADSVKGRFTISRDNAKNTVYLQMNSLKPEDTAVYYCAARDNDYEGRDLQYELDYWGQGSQVTVSS | low polyreactivity |
| QVQLVESGGGLVQARGSLRLSCAASGRTFVVYDMGWYRPAPGKERALVAAITWSGGSTYYADSVKGRFTSSRDTAKNTVYLQMHSLKPEDTAVYYCAAGYYYFWTYAYWGQGTQVTVSS | low polyreactivity |
| QVQLVESGGGLVQARGSLRLSCAASGRTVTYYAMGWYRQAPGKERELVAAISSGDSTYYADSVKGRFTISRDNAKNTVYLQMNSLKPEDTAVYYCAVDHVSRYYGYPEITYDYWGQGTQVSVSS | low polyreactivity |
| QVQLVESGGGLVQARGSLRLSCAASGSIFAQYAMGWYRQAPGKERELVAAITRSTGRTYYADSVKGRFTISRDNANNTVYLQMNSLKPEDTSVYYGNARQRQSKYYPYTTFTYDYWGQGTQVTVSS | high polyreactivity |
| QVQLVESGGGLVQARGSLRLSCAASGSIFDGNAMGWYRQAPGKERELVAAITWRGTRTYYADSVKGRFTISRDNAKNTVYLQMNSLKPEDTAVYYCNKKWYPYLEHDYWGQGTQGTVSS | high polyreactivity |
| QVQLVESGGGLVQARGSLRLSCAASGSIFRGYGMRRYIQAPGKERELVAAINYSGGSTYYADSVKGRFTISRDNAKNTVYLQMNSLKPEDTGVYYCNNDYYRQRGEYYYWGQGTQVTVSS | high polyreactivity |
| QVQLVESGGGLVQARGSLRLSCAASGSIFRKYAMGWYRQAPGKERELVAVITTDGSTNYADSVKGRFTISRDNAKNTVYLQMNSLKPEDTAVYYCNAVRSSIGTDNVYWGLGTQVTVSS | low polyreactivity |
| QVQLVESGGGLVQARGSLRLSCAASGSIFYPYAMGWYRQAPGKERELVAGISRSGASTYYADSVKGRFTISRDNAKNTVYLQMNSLKPEDTAVYYCAADDWTRNYWGQGTQVTVSS | low polyreactivity |
| QVQLVESGGGLVQARGSLRLSCAASGSTFIRYAMGWYRQAPGKERELVAAITWRGGSTYYADSVKGRFTISRDNAKNTVYLQMNSLKPEDTAVYYCAARDRDTRNYYWGQGTQGTVSS | high polyreactivity |
| QVQLVESGGGLVQARGSLRLSCAASGSTFSRNVMGWYRQATGKERELVAAISRGGSTNYADSVKGRFTISRDNAKNTVYLQMNSLKPEDTAVDYCAARSYGSTGPHGLKWVSYDYWGQGTQVTVSS | low polyreactivity |
| QVQLVESGGGLVQARGSLRLSCAASGSTSDINAMGWYRHAPGKARELVAVITDSSNTDYADSVKGRFTISRDNAKNTVYLQMNSLKPEDTAVYYCARDDATAGDYWGQGTQVTVSS | low polyreactivity |
| QVQLVESGGGLVQARGSLRLSCAASRLIFTWYAMRWSRHAPGKERELVAAISWSDDSTNYADSVKGRFTISRDNAKNTVYLLMNSLKPEDTAVYYCATQLDYGGRVGDADDYWGQGTQVTVSS | low polyreactivity |
| QVQLVESGGGLVQARGSLRLSCAGSGSTLPSYAMGWYRQAPGKERELVAAISSSGGRTYYADSVKGRFTISRDNAKNTVYLLMNSLKPEDTAVYYCAALSVANYHGTDSGYWGQGTQVTVSS | high polyreactivity |

| Sequence | polyreactivity (PSR sort gate) |
| --- | --- |
| QVQLVESGGGLVQARGSLRLSCASSGFIFSRYAMGWYRQAPGKESELVAAITSGGSTYYADSVKGRFTISRDNAKNTVYLQMNSLKPEDTAVYYCNVVSKSRISQYVGYSYDYWGQGTQVTVSS | high polyreactivity |
| QVQLVESGGGLVQARGSLRLSCASSGITFWKYTMGCYRQAPGKESELVASIRIGGSTYYADSVKGRFTISRDNAKNTVYLQMNSLKPEDTAVYYCAAKGIYGLQGSPRSGYYYWGQGTQVTVSS | high polyreactivity |
| QVQLVESGGGLVQARGSLRLSCPASGLIFPAYAMGWYRQAPGKERELVATITWRGGSTYYADSVKGRFTISRDNAKNTVYLQMNSLKPEDTAVYYCATRPRYYYFRYDYWGQGTQVTVSS | high polyreactivity |
| QVQLVESGGGLVQARGSLSLSCAASGSIFYYNAIGWYRQPPGKERELVATITSAVSTNYADSVKGRFTISRANAKNPVYLQMNSLKPEDTAVYYCAADDYQVQYDYWGQGTQVTVSS | low polyreactivity |
| QVQLVESGGGLVQARGSLSLSCAATGSTSYINAMGWSSQAPWKERELVAAIRSGGSTKYADSVKGRFTISRDNAKNTVYLQMNSVLPEDSSVYYCAARNVYKTSGFRWVWNYDYWGQGTQVTVSS | high polyreactivity |
| QVQLVESGGGLVQAVGSHRLSSAASGFIFDYNAMGWYRQEPVKVRELVAAISVSDDSTYYADSVKGRFTISRDNAKNTVYLQLNSLKPEVPAGYYCAAEWWDVIAPYDYWGLGTQVTVSS | low polyreactivity |
| QVQLVESGGGLVQAVGSHRLSSAASGFTFRWYTMGWYRQAPGKERELVASIRYGGGSTYYADSVKGRFTISRDNAKNTVYLQMNCLKPEDTAVYYCAAESAWTSPYDYWGQGTQVTVSS | high polyreactivity |
| QVQLVESGGGLVQAVGSLRLSCAASGFTIIDNAMGWYRQARGKERELVAAISISGGRTYYADSVKGRFTISRDNAKNTVYLQMNSLKPEDTAVYYCAAGKHRRDDYCGQGTQVTVSS | high polyreactivity |
| QVQLVESGGGLVQAVGSLRLSCAASGLIFFYYSMGWYRPAPGKERELVAAIRTNYADSVKGRFTISRDNAKNTVYLQMNSLKREDTAAYYCAAESSQTPTSAFDYWGQGTQVTVSS | low polyreactivity |
| QVQLVESGGGLVQAVGSLRLSCAASGLTFYSNAMGWYRQAPGKERELVATISQDGGRTYADSLKGRFTISRDNAKNTVYLQMNSLKPEDTAVYYCAKVRERINYDYWGQGTQVTVSS | low polyreactivity |
| QVQLVESGGGLVQAVGSLRLSCAASGRIFGPNAMGWYRQAPGKERELVAAITGSGGSTYADSVKGRFTISRDNAKNTVYLQMNSLKPEDTAVYYCAKKTWYSYDWGQGTQVTVSS | high polyreactivity |
| QVQLVESGGGLVQAVGSLRLSCAASGRIFGYYVMGWYRQAPGKERELVAAITSNGGSTYYADSVKGRFTFSRDNAKNTVYLQMNSLKPEDTAVYYGNKDKRYYRYGYWGQGTQVTVSS | high polyreactivity |
| QVQLVESGGGLVQAVGSLRLSCAASGRTFQSYTMGWYRQAPGKEREFVAAFRDSGGSTYYADSVKGRFTISRDNAKNTVFLQMNSLKPEDTAVYYCAAYRPRKYDYWGQGTQVTVSS | high polyreactivity |
| QVQLVESGGGLVQAVGSLRLSCAASGRTFYGYALGWYRQQPGKVSELVAAISADTGRTRYADSVKGRFTISRDNAKNTVYLQMICLNPEDTAVYYCATRLFPQSRYYYWGQGTQVTVSS | high polyreactivity |
| QVQLVESGGGLVQAVGSLRLSCAASGSIFAVNTIGWYRQAPGKERELVASISQRGSSTYYADSVKGRFTISRDIAKNTVYLQMNSLIPEDTAVYYCAVVQRYWYAGIVPYDYWGQGTQVTVSS | high polyreactivity |
| QVQLVESGGGLVQAVGSLRLSCAASGSIFGAYAMGWYRQAPGKERELVAAITSGGSTNYADSVKGRFTISRDNAKNTVYLQMNSLKPEDTAVYYCAARRRYAKFRYDYWGQGTQVTVSS | high polyreactivity |
| QVQLVESGGGLVQAVGSLRLSCAASGSILASNAMGWYRQAPGKERELVAAITTSGGSTYYADSVKGRFTISRDNAKNTVYLQMNSLKPEDTAVYYCNAEYWLGRWLRYGYWGQGTQVTVSS | high polyreactivity |
| QVQLVESGGGLVQAVGSLRLSCAASGSIYGYAMGWYIQAPGKERELVAAISGRGGRTYYADSVKGRFTISRDNAKNTVYLQMNSLKPEDTAVYYCNFQWRYPYHYTVDYWGQGTQVTVSS | high polyreactivity |
| QVQLVESGGGLVQAVGSLRLSCAASVIIFDVNAMGWYRQAPAKERELVATISKRGGTTYYADSVKGRFTISRDNAKNTVYLQMYSLKPEDTAVYYCAARHQTLRSYRYDYWGQGTQVTVSS | low polyreactivity |
| QVQLVESGGGLVQAVGSLRLSFAASGFTFGRNSLGWYRQAPGKERELVAAMTSRVGSTYYADSVKGRFTISRDKAKNTLYLQMNSLKPEDTAVYYCAAVKGPERPTTPYDYWGQGTQVTVSS | high polyreactivity |
